Two molecules from PMC9860126, “Mechanistic insights into the nickel-dependent allosteric response of the Helicobacter pylori NikR transcription factor” can be followed below.

The target of data set [1] is HpNikR I127A (Helicobacter pylori G27, UniProt A1YSQ9 1-148, I127A). The data set can be described thus: fluorescence anisotropy; apo (no Ni); FA: 5 nM DNA, 20 mM Tris pH 7.6, 100 mM NaCl, 3 mM MgSO4, temperature not stated (Ni loading 1.2 eq NiSO4 per monomer at RT). EMSA: 20 mM Tris pH 7.5, 100 mM KCl, 3 mM MgCl2, 0.1% IGEPAL, 5% glycerol, 0.1 mg/ml herring sperm DNA, RT; gel with 800 uM NiSO4 at 4 C. The settings on record: protein: recombinant; tags: none stated; chain copies: 4; label: fluorescein on internal thymine (T14 of strand 1); blunt.

Data set [2] has as its target HpNikR W54A (Helicobacter pylori G27, UniProt A1YSQ9 1-148, W54A). The data set is described as above. The settings on record: protein: recombinant; tags: none stated; chain copies: 4; label: fluorescein on internal thymine (T14 of strand 1); blunt.
Data set [3] concerns the target HpNikR N32A (Helicobacter pylori G27, UniProt A1YSQ9 1-148, N32A). The data set is described as above. The settings on record: protein: recombinant; tags: none stated; chain copies: 4; label: fluorescein on internal thymine (T14 of strand 1); blunt.
In data set [4] the target is T1, HpNikR WT (Helicobacter pylori G27 (from vector …, UniProt A1YSQ9 1-148)).
T1 sequence: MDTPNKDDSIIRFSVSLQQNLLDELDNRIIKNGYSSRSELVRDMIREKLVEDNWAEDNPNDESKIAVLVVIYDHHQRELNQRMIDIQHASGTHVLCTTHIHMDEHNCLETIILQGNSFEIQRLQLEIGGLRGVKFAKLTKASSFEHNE
The description is as above. The settings on record: protein: recombinant; tags: none stated (untagged purification); chain copies: 4; label: fluorescein on internal thymine (T14 of strand 1); blunt.

The target in data set [5] is HpNikR Q81A (Helicobacter pylori G27, UniProt A1YSQ9 1-148, Q81A). Described as above. The settings on record: protein: recombinant; tags: none stated; chain copies: 4; label: fluorescein on internal thymine (T14 of strand 1); blunt.
Data set [6] deals with HpNikR K134A (Helicobacter pylori G27, UniProt A1YSQ9 1-148, K134A). The data set is described as above. The settings on record: protein: recombinant; tags: none stated; chain copies: 4; label: fluorescein on internal thymine (T14 of strand 1); blunt.
Data set [7] deals with HpNikR E62A (Helicobacter pylori G27, UniProt A1YSQ9 1-148, E62A). Described as above. The settings on record: protein: recombinant; tags: none stated; chain copies: 4; label: fluorescein on internal thymine (T14 of strand 1); blunt.
Data set [8] concerns the target HpNikR K48A (Helicobacter pylori G27, UniProt A1YSQ9 1-148, K48A). Described as above. The settings on record: protein: recombinant; tags: none stated; chain copies: 4; label: fluorescein on internal thymine (T14 of strand 1); blunt.
For data set [9], the target named is HpNikR Δ3aa (Helicobacter pylori G27, UniProt A1YSQ9 1-58+62-148, internal_change). The data set can be described thus: fluorescence anisotropy; Ni(II)-bound; FA: 5 nM DNA, 20 mM Tris pH 7.6, 100 mM NaCl, 3 mM MgSO4, temperature not stated (Ni loading 1.2 eq NiSO4 per monomer at RT). EMSA: 20 mM Tris pH 7.5, 100 mM KCl, 3 mM MgCl2, 0.1% IGEPAL, 5% glycerol, 0.1 mg/ml herring sperm DNA, RT; gel with 800 uM NiSO4 at 4 C. The settings on record: protein: recombinant; tags: none stated; chain copies: 4; label: fluorescein on internal thymine (T14 of strand 1); blunt.

The target of data set [10] is HpNikR K64A (Helicobacter pylori G27, UniProt A1YSQ9 1-148, K64A). The description is as above. The settings on record: protein: recombinant; tags: none stated; chain copies: 4; label: fluorescein on internal thymine (T14 of strand 1); blunt.

B1: ureA promoter 32 bp (FA) (dsDNA)
DNA 1: ATATAACACTAATTCATTTTAAATAATAATTA
DNA 2: TAATTATTATTTAAAATGAATTAGTGTTATAT
A word on the Kd: it is the equilibrium constant for the complex coming apart. With B1, the Kd was 4000 ± 1300 nM in data set [1]; 6100 ± 1000 nM in [2]; 1600 ± 400 nM in data set [3]; 4900 ± 1700 nM in [4]; 2000 ± 500 nM in [5]; 1700 ± 700 nM in data set [6]. The values for the dissociation constant Kd in data set [7], in [9] and in data set [10] were 2600 ± 200 nM, 4.4 ± 1.3 nM and 22 ± 2.2 nM, respectively. Further, the binding result in [8] was “no binding”.

B2: ureA-perf promoter 32 bp (dsDNA)
DNA 1: ATATATTATTAATTCATTTTAAATAATAATTA
DNA 2: TAATTATTATTTAAAATGAATTAATAATATAT
Consider B2, for which the Kd in [1] is 4000 ± 300 nM; in [2], 3700 ± 200 nM; in [3], 1900 ± 700 nM; in data set [4], 4100 ± 1100 nM; in [5], 1600 ± 600 nM; in [6], 1000 ± 300 nM. Also, in [7], the equilibrium dissociation constant (Kd) turned out to be 4200 ± 700 nM. Further, in [8], the binding result is reported as “no binding”.
